Data set [1] deals with the molecule itself. The data set is described as follows: crystal structure; RIP2K_(L294F) 5 mg/ml with 2 mM AMPPCP and 5 mM MgCl2; sitting drop, 20°C; P4(1)2(1)2, a dimer in the asymmetric unit; 2.0 Å.
Data set [2] concerns the molecule itself. The experiment in a line: AUC; sedimentation velocity at increased protein concentration (RIP2K at 10 and 18 μM; range tested 4 to 18 μM); 42,000 r.p.m., 4°C; 20 mM Tris pH 7.5, 50 mM NaCl, 5% glycerol, 250 μM TCEP; oligomers beyond the dimer.
Data set [3] concerns the molecule itself. The data set is described as follows: AUC; sedimentation velocity at low protein concentration (3-5 μM); 42,000 r.p.m., 4°C; 20 mM Tris pH 7.5, 50 mM NaCl, 5% glycerol, 250 μM TCEP; monomer to dimer.
Data set [4] concerns the molecule itself. The data set is described as follows: native MS; 3-5 μM protein in 250 mM ammonium acetate with 1 mM DTT, nano-ESI Q-TOF; RIP2K_(D146N) as the staurosporine sample.

Consider four proteins from PMC5436651 (PLoS ONE, 2017).

B1: RIP2K_(L294F) (RIP2 kinase domain 1-300 with the spontaneous mutation L294F), crystallised with AMPPCP (domain or fragment)
chain: GAMAMNGEAICSALPTIPYHKLADLRYLSRGASGTVSSARHADWRVQVAVKHLHIHTPLLDSERKDVLREAEILHKARFSYILPILGICNEPEFLGIVTEYMPNGSLNELLHRKTEYPDVAWPLRFRILHEIALGVNYLHNMTPPLLHHDLKTQNILLDNEFHVKIADFGLSKWRMMSLSQSRSSKSAPEGGTIIYMPPENYEPGQKSRASIKHDIYSYAVITWEVLSRKQPFEDVTNPLQIMYSVSQGHRPVINEESLPYDIPHRARMISLIESGWAQNPDERPSFLKCLIELEPVFRTFEEI
notes: The methods say the AMPPCP crystals came from RIP2K_(L294F); the results call this structure wild-type RIP2K; no density for the phosphorylation sites; also called RIPK_(L294F); RIP2K-AMPPCP; not shown: His-tag, N-terminal, cleaved
Consider B1, for which the binding result in data set [1] was “binds”.

B2: RIP2K_(K47R) (RIP2 kinase domain 1-300, kinase-dead mutant K47R, not phosphorylated) (domain or fragment, UniProt O43353 1-300, looked up)
chain: MNGEAICSALPTIPYHKLADLRYLSRGASGTVSSARHADWRVQVAVRHLHIHTPLLDSERKDVLREAEILHKARFSYILPILGICNEPEFLGIVTEYMPNGSLNELLHRKTEYPDVAWPLRFRILHEIALGVNYLHNMTPPLLHHDLKTQNILLDNEFHVKIADFGLSKWRMMSLSQSRSSKSAPEGGTIIYMPPENYEPGQKSRASIKHDIYSYAVITWEVLSRKQPFEDVTNPLQIMYSVSQGHRPVINEESLPYDIPHRARMISLIESGWAQNPDERPSFLKCLIELEPVLRTFEEI
notes: Not phosphorylated by mass spectrometry; also called Rip2_(K47R)
B2: the “stoichiometry N” value in data set [2] was found to be 4; in data set [3] it was 2.

B3: RIP2K_(D146N) (RIP2 kinase domain 1-300, kinase-dead mutant D146N, not phosphorylated) (domain or fragment, UniProt O43353 1-300, looked up)
chain: MNGEAICSALPTIPYHKLADLRYLSRGASGTVSSARHADWRVQVAVKHLHIHTPLLDSERKDVLREAEILHKARFSYILPILGICNEPEFLGIVTEYMPNGSLNELLHRKTEYPDVAWPLRFRILHEIALGVNYLHNMTPPLLHHNLKTQNILLDNEFHVKIADFGLSKWRMMSLSQSRSSKSAPEGGTIIYMPPENYEPGQKSRASIKHDIYSYAVITWEVLSRKQPFEDVTNPLQIMYSVSQGHRPVINEESLPYDIPHRARMISLIESGWAQNPDERPSFLKCLIELEPVLRTFEEI
notes: Not phosphorylated by mass spectrometry; also called RIP2K_(D146N)-STAU; RIP2KD146N-STAU; source: mixed with 0.5 mM staurosporine during dialysis
As to B3, the “stoichiometry N” value in data set [4] was 2.

B4: RIP2K (kinase domain of Receptor Interacting protein kinase 2, residues 1-300), wild type, phosphorylated (domain or fragment, UniProt O43353 1-300, looked up)
chain: MNGEAICSALPTIPYHKLADLRYLSRGASGTVSSARHADWRVQVAVKHLHIHTPLLDSERKDVLREAEILHKARFSYILPILGICNEPEFLGIVTEYMPNGSLNELLHRKTEYPDVAWPLRFRILHEIALGVNYLHNMTPPLLHHDLKTQNILLDNEFHVKIADFGLSKWRMMSLSQSRSSKSAPEGGTIIYMPPENYEPGQKSRASIKHDIYSYAVITWEVLSRKQPFEDVTNPLQIMYSVSQGHRPVINEESLPYDIPHRARMISLIESGWAQNPDERPSFLKCLIELEPVLRTFEEI
modifications: auto-phosphorylated in vitro: phosphoserine at 174, 176, 178 and at 180 or 181 (a maximum of five phosphorylation sites)
notes: also called WT RIP2K; RIP2K_(1-300); source: de-phosphorylated with lambda phosphatase and re-phosphorylated before native MS and AUC
With B4, the “stoichiometry N” value in data set [3] was 2.

For orientation: stoichiometry N means the number of molecules, sites or subunits per partner or assembly.
